{"source": "a protein production outcome set (Wang et al. 2014)"}
{"test": "label from the status in PepcDB records"}
{"sequence": "MMSTKNGTNQARTSRDVGSELIYLTKALKAPALRDAAARLAERARDEGWSHEEYLAACLQREVAARDSHGAEGRIRAARFPSRKSLEDFDFDHQRSVKREVIAHLGTLDFVAGKENVIFLGPPGTGKTHLATGLGIRACQAGHRVAFGTAAQWVARLAEAHQAGRLSDELTRLGRIPLIVVDEVGYIPFEPEAANLFFQFISGRYERASVIVTSNKPFGRWGEVFGDDTVAAAMIDRLVHHAEVISLKGDSYRMRGRDLGRVPAANTGE", "protein production": "failed"}
{"sequence": "MMTALATVLEVQEDIVVVGCQQKTSCNHCSSKDSCGTGIVSKALPGKVHHWAFHTEKKLSVGQLVEIGLPEKNLLQSAAIVYLTPLLFLLFGALLSEWFLSPMIGLGELTTIVVSVLFALGGYQLAKRLSHHIEQKTEQQVSLLRVLGEPVSDTNLGNAAR", "protein production": "failed"}
{"sequence": "MMTKKERIAIQRSMAEEALGKLKAIRQLCGAEDSSDSSDMQEVEIWTNRIKELEDWLWGESPIA", "protein production": "not failed"}
{"sequence": "MMTQQELEKYLWGAATTLRGTIDAGDYKQYIFPLMFFKRICDVYDEEFENALAESDGDLEYAAFAENHHFQVPKGAHWNDVRETTTNIGLALQNAMRAIEKANPDTLEGIFGDASWTNKERLSDAMLTNLIEHYSEQTLNLKNVPDDKLGNAYEYLIKEFADDSGHTAAEFYTNRTVVKLMTMIMAPQPGESVYDPTCGSGGLLLNCALHLKDEGKEYRTLKLYGQEINLLTSAIARMNMFMHGIEEFDIVRGNTLSNPGLLENDELKKFNVILANPPYSIKSWDRKAFESDPYGRNVWGTPPQGCADYAFQQHIQKSLDLGNGRSISLWPHGILFRDAETAMRRKMIEQDQVECVIGLGPNLFYNSPMEACLLITKTNKIESKKDKILFINAVKEVRQDKNIGYLDQVHIDKIFNAYNKFENEDSFAVLVDKQEVLDKKANMAINLYIRPDSLVSSEEACFATAYQEWQQSSGDLKQSMEKLFKELV", "protein production": "not failed"}
{"sequence": "MMVAVFWISFLLLAYIYFGYPVCIRLLASARPLPVNKSGAYQPKVSILIAAYNEAKDIEATLRNKLALDYPREQLEILVVSDESEDGTDEIVQAVAADAPFPVKLFRQVPRQGKTAGLNMLKQHAEGEILAFSDANSEWDQQALKALVSNFNDPAVGYVTGKMVYVNPEGALIGDGCSAYMKYENWLRAQETLVGSVVGVDGGIDAMRKELHSELNADQLPDFVQPLKVVEQGYRVVYEPGALLKEEALSDGGSEFSMRVRVSLRALWALKDMKQLMSPANDPVFAWQLISHKLLRYAAFAPMITLAIAALYLAPVKGLYALAAIGYGLFLYFAWAGYQKESRGQSLSTMYALPYYFVLLNLASFKAFVAFAKGEKKVVWNPRKG", "protein production": "failed"}
{"sequence": "MNAADLTIWLVAGAGVLSFISPCSLPLYPSYLSYITGVSIQDLKENRGIMQKSAIIHTVFFMIGFSVIFYALGLSVSWIGITFSSNQKLIQQIGGIFIVLMGLFMTGLFQPKWLMAEKKVQYRSKSTGYIRSILVGMTYAAGWTPCVGPIFSAVLMLGATNPEGALLYITAYTLGFAVPFFVMAFFIGKVKWIVTYANVMMKIGGGMMIVTGILLYTNQMTKITAFFIRLFGGFTGF", "protein production": "failed"}
{"sequence": "MNAAVVRRTQEALGKVIRRPPLTEKLLSKPPFRYLHDIITEVIRMTGFMKGLYTDAEMKSDNVKDKDAKISFLQKAIDVVVMVSGEPLLAKPARIVAGHEPERTNELLQIIGKCCLNKLSSDDAVRRVLAGEK", "protein production": "not failed"}
{"sequence": "MNAINTKVTPTKRKQVALFSSDPNFKRDVATRLDALAIYDVRVSETDDFLKGPPADTRPGIVILDLGGGDLLGKPGIVEARALWATVPLIAVSDELTSEQTRVLVRMNASDWLHKPLDGKELLNAVTFHDTGNQ", "protein production": "not failed"}
{"sequence": "MNAIPRVALVWLLVAQVLVILPHLAYMPLWIAAMWLGCAAWRVQVFRMRAGYPRAWVKLALALLAGAGVWLSRGSLVGLDAGAVLLIAAFILKLVEMKTRRDALVLVFLGFFAVVVGYLFDDGFLAALYSLLPVTALLAALIGLQQSAFASRPWPTLRLAGGLLLQALPLMLLLFLFFPRLGPLWSLPMPGNKGVTGLSESMAPGDIAELGRSAELAFRVRFEGALPPREQLYWRALTMERFDGRRWAQAPQWSGEDALHWQKRGPELRYDVIMQPSSQPWLFALDVAQTDQTDTRLMSDFHLQRRQPVEQRLFYRVSSWPQALRESSIDPRTRWRNLQLPMHGNPRARALADELRQAHAQPQALVAALLQRFNHEPFAYTLKPPATGADGVDDFLFDTRSGFCAHYAGAMAFVLRAAGIPARVVAGYQGGELNPAGNYLLVHQFDAHAWVEYWQPEQGWLSVDPTYQVAPERIEQGLEQALAGDSEYLADAPLSPLRYRGLPWLNDMRLAWDSLNYGWQRWVLAYQGEQQGAFLQRWFGGLDPTRLGLLLGAAAILSVGLLALFLLKPWQGRGDLRSRQLRRFERLLEMHGLRRSPGEGLRSYGERAARVLPAQAPAIAAFVGAFEAQRYGHGGADDPGLRLRALRRALPWRLVRTPTRDGRGEEQA", "protein production": "failed"}
{"sequence": "MNALVAHNSEAWDKKVETGNEWTVAVEQQVIEQAKKGNWDIRVTPMKDVPKDWFPPIKGLKVLCLASGGGQQGPVLAAAGADVTVLDNSEKQLNQDRMIAERDGLTIHTVKGSMDDLSVFNDESFDVIVHPVANVFVENVLPVWKEAYRVLKRNGILISGFVNPVVFLFDTVLEQQGVLKVKHSIPYADPEDLPKHKVKELIENNEALEFGHSLEDQIKGQIDAGFIVTGFYEDKGGFVLDQYIHTYSATRSVKVLEHHHHHH", "protein production": "not failed"}
{"sequence": "MNANIMLNEDITPIGSDYDTVRGVIELLTLDYREQPSLEAIAARLGQSPTQLQKTFTRWAGLSPKAFLQAVTLDHAKRLLREEDLPLLETSIEVGMSGPGRLHDLFVTHEAMSPGEWKAKGGGLTIRYGFHASPFGLALVMITDRGLAGCAFADPGDERACFEDMAGRWPNADYVEDREATAPYAARIFEPAMWTADKPLRVVLLGTDFQVRVWKSLLKIPMGRAVTYSNIACDIGQPTASRAVGAAVGANPVSFVVPCHRAVGKSGALTGYHWGLTRKRAMLGWETGKALEHHHHHH", "protein production": "failed"}
{"sequence": "MNARDNKFNTWNDSRGNYWSDYEGSDENGDGIGDSAYAVNPEAGSMDYMPLMEYLHSSPVLPTARFTSDITEGFAPLSVRFKDFSENATSRLWMFGDGNTSDSPSPLHTFFNEGEYIVSLIVSNENDSDSASVTIRALEHHHHHH", "protein production": "not failed"}
{"sequence": "MNASAVETIYESTEDKAALTSVVDLVKLSDQYRQSAILHYAVADKLFDLTQTGRTPAEVAASFGMVEGKAAILLHALAALGLLTKEGDAFRNTALTERYLTTTSADYIGPIVEHQYLQWDNWPRLGEILRSEKPLAFQQESRFAHDTRARDAFNDAMVRLSQPMVDVVSELGVFARARTVIDLAGGHGTYLAQVLRRHPQLTGQIWDLPTTRDAARKTIHAHDLGGRVEFFEKNLLDARNFEGGAADVVMLNDCLHYFDAREAREVIGHAAGLVKPGGALLILTMTMNDDRVTPALSADFSLHMMVNTNHGELHPTPWIAGVVRDAGLAVGERSIGRYTLLIGQRSSGEV", "protein production": "not failed"}
{"sequence": "MNASLTPDQVSKKLKQFFSDHLPISQFMGLEIESYDGDTLILTAPLEPNINDKQTAFGGSLYNAAVMACWGMVYLKTQEENIACNQVVTEGNMKYIAPVYGRIRAICHAPDEEELANFFDHFERKGKARISLEAAIYNDACVMKIEPETKPSVKFNGQYAILKNQ", "protein production": "not failed"}
{"sequence": "MNAWNTIYDQFNPIAFSLGSIEVHWYGLAYACAIVTAFYMALRMIQKDPKRFPIERKEFESYFLWAELGIVLGARIGYILIYEPNSGYYLTHFWQIFNPFDSHGNFVGIRGMSYHGGLVGFLIASYLYSRKDLKKLLIYLDLIAISLPLGYVFGRIGNFLNQELVGRIVPKDSHLGQIIGIMVDNELRYPSQLIEAFLEGVIVFLMVMWAKKHTKTHGLLIVVYGLGYSLMRFIAEFYREPDSQMGVYFLNLSMGQILSLFMVIVSLGILLYATKNSKKIKENQ", "protein production": "failed"}
{"sequence": "MNDDSQDKIIHDIRIQLRKAATELSRWKLYGSSKWAAEALAGLAEAIDVDQTHSLADESPLRNKQGVPKQMFEIPQNGFGLSETEYDLYLLGSTLFDAKEFDRCVFFLKDVTNPYLKFLKLYSKFLSWDKKSQESMENILTTGKFTDEMYRANKDGDGSGNEDINQSGHQRANLKMVSNEHESQSNISSILKEINTFLESYEIKIDDDEADLGLALLYYLRGVILKQEKNISKAMSSFLKSLSCYSFNWSCWLELMDCLQKVDDALLLNNYLYQNFQFKFSENLGSQRTIEFNIMIKFFKLKVFEELNGQLEDYFEDLEFLLQVFPNFTFLKAYNATISYNNLDYVTAESRFDDIVKQDPYRLNDLETYSNILYVMQKNSKLAYLAQFVSQIDRFRPETCCIIANYYSARQEHEKSIMYFRRALTLDKKTTNAWTLMGHEFVELSNSHAAIECYRRAVDICPRDFKAWFGLGQAYALLDMHLYSLYYFQKACTLKPWDRRIWQVLGECYSKTGNKVEAIKCYKRSIKASQTVDQNTSIYYRLAQLYEELEDLQECKKFMMKCVDVEELLEGIVTDETVKARLWLAIFEIKAGNYQLAYDYAMGVSSGTSQEIEEARMLARECRRHM", "protein production": "failed"}
{"sequence": "MNDGKATPGEAGCRENQLLKLPGFGNFTIIDRYIARQFLTIFLFALASFAALFILINLVENLDRFLDRHISFGRILIYYLSGLPDTFLLTSPLSVLLASLFVTGKLSMQSELPALKSAGMSLSRLMKPFLLVTMAIAALNTINSCFIAPAMYDWSKGFEKRYLKKQQDNGEEPLHIRESNNRILTVAKIGPDKKSATTVSLETFNGSQIVSRIDADSLRIITRHKYWIFYNTKQRTFSKGAETLVTRAGADTLKLSLAPNTFKMIDTDPDEMNIVQHIDFIWQKARSGLPGLERATVKLHTKLALPLASMIIVLIGVPLSSKKKRSGLAVEISISLLIGLLYLGMLKTIGSLGYDGLLNPVLAAWLPDILFIIAGTFLYRSADH", "protein production": "failed"}
{"sequence": "MNDGRMLGLFTFIIMIISIISQIIALSASQRNIYLGIRIPQEEINNTKIKAIGKRYIWSNLLLGIPIAALLSYCVYKINNDILYLAAIILFMAISFLLYYYYNRKILKIKKEEGWLKTKKQEIVIDTSFAKRKSERMVAGSRWFLLSLIFIVICLIVNVKQYPNIPYRYPTHWDINGRPNAYSLKSYMTIFSMPINQLILIAVMFFSYKITFWSKNELDGRNPKDSGERNIKFRNVWAIYAIVVNFFLQIIFLIQDFQIMHIVNTNPKFIIIAVITMTIVVICSSLIISIKVGQGGSRLKTRGNKSEFGINMRDDDKYWRLGNLFYCNKNDPSIFVQKRFGIGWTVNVGNKFGVLFYVLIIVFLIICIAISR", "protein production": "failed"}
{"sequence": "MNDILQLTIVLIASLIATLVSRRLKIPAVVGQMLVGILIAPSVLGLVHSGHVLEVMSEIGVILLMFLAGIESDLTVLKKNFKASMLVAVGGVIVPLIAFGLVAFGFGYGISTSFFYGIVFAATSVSITVEVLQEYGKLSTRAGSIILGAAVVDDILAVLILSIFTSFKNGGSGSHLFIQFLLELLFFAFLFLVHKLIPRFWKFVQKLPIANKNTIVALIICLGLSLLADSVGMSAVIGSFFAGLAISQTEVSHKIEEYTSAIGYVIFIPVFFVLIAISVQFDSLIHHPWIILLFTFLAILTKFIPAYFVGKASKLSTGESMLIGTGMISRGEMALIVAQIGLTSAIITDEVYSELVIVIILATVLAPFLIKMVLKKYDN", "protein production": "failed"}
{"sequence": "MNDLSQWSISKDSNLDSPWIEGIPGCGIPGAGSLVEHIDRQILVLQRDGRYIVGLLRSYDQYANLVLENTFERFVLNDSYCDEPLGVFIIRGENVALLGEVDGEKESQWLSHLHTVSLEDTKKTIRGKRQATKALLHSQPERVEWTFYDDAFF", "protein production": "not failed"}
{"sequence": "MNDRACVSARTRWPLVSVLIPAFNHARFVQRCLDSVLEDPYPCKEIVIIDDGSRDATGEKISQWISDHGHRLPVHFVQRENRGVAATLNELALRARGEYLRLGASDDYLLPGGLDAQVRYLRGHPQKLAVIGDACVVDAHGQLMHASAMRDLHRVDKDLYRSESGIRHAVIRQWAVSGAVALLRRSALDARSRWDESLRIEDWDFFLRLVAGNALGFIDLPVCAYRLHGNNLSKTADVPARIANLCESRQVALRCAPLFDEPDRMLLHAQARYIAAKVEFLRRRPHRIAMHLAVYAGLSLSARWRPKRVARAAELA", "protein production": "failed"}
